Here are results for two molecules from US20220073619A1 (IMCHECK THERAPEUTICS, published 2022).

In assay [1] the target is T1, Human BTN3A1 His-tagged antigen (Sino Biological Cat. No. 15973-H08H) (human, UniProt O00481 30-254).
T1 construct: Bought recombinant protein; also called recombinant human BTN3A1-His; not shown: His tag
The assay is described as follows: SPR Biacore T200, single cycle kinetics, BTN3A1-His captured on anti-His CM5 chip, F(ab′)2 as analyte, bivalent analyte model (kd 1), 25 C. The method, then: (§1) All single cycle kinetic experiments were run at 25° C. with HBS-P+ running buffer (pH 7.4) containing 0.1% BSA (GE Healthcare, Little Chalfont, UK).
(§2) Human BTN3A1 His-tagged antigen (Sino Biological, Beijing, China) was diluted in running buffer to a final concentration of 0.4 μg/mL. At the start of each cycle, BTN3A1-His was captured onto Fc2 of CM5 sensor chip pre-coupled using a His capture kit (GE Healthcare, Little Chalfont, UK) with standard amine chemistry at a flow rate of 10 μL/min. An immobilization level (RL) of ˜17 RU or 8 RU, the different theoretical values to obtain a RMax of ˜25 RU was used for the analytes Fab and F(ab′)₂ respectively. The surface was then allowed to stabilize. Single cycle kinetics data was obtained with the purified samples (Fab and F(ab′)₂)) at a flow rate of 40 μL/min to minimize any potential mass transfer effects. The signal from the reference channel Fc1 (no antigen capture) was subtracted from that of Fc2 to correct for differences in non-specific binding to the reference surface. […] The signal for BTN3A1-His blank runs (no analyte) were subtracted to correct for differences in surface stability. The association phase for the five injections of increasing concentrations was monitored for 240 seconds each time and a single dissociation phase was measured for 2000 seconds following the last injection of analyte. […]

The target in assay [2] is T1, Human BTN3A1 His-tagged antigen (Sino …). The assay is described as follows: SPR Biacore T200, single cycle kinetics, BTN3A1-His captured on anti-His CM5 chip, F(ab′)2 as analyte, bivalent analyte model (kd 2), 25 C. The method, then:
as §1, §2
A general note: Surface plasmon resonance follows binding to a sensor surface in real time, without labels.

The target in assay [3] is Human BTN3A, membrane displayed on cells (human PBMCs, Daudi cells, SKOV-3 cells) (human), O00481. The assay is described as follows: cell-based or functional assay.
Assay [4] concerns the target T1, Human BTN3A1 His-tagged antigen (Sino …). The assay is described as follows: SPR Biacore T200, single cycle kinetics, BTN3A1-His captured on anti-His CM5 chip, F(ab′)2 as analyte, bivalent analyte model (ka 1), 25 C. The method, then:
as §1, §2

For assay [5] the target is unchanged. The assay is described as above. The procedure: (§3) Human BTN3A1 His-tagged antigen (Sino Biological, Beijing, China) was diluted in running buffer to a final concentration of 0.4 μg/mL. At the start of each cycle, human BTN3A1-His was captured onto Fc2 of CM5 sensor chip pre-coupled using a His capture kit (GE Healthcare, Little Chalfont, UK) with standard amine chemistry at a flow rate of 10 μL/min. An immobilization level (RL) of ˜34 RU, 16 RU or 11 RU, the different theoretical values to obtain a RMax of ˜50 RU was used for the analytes Fab, F(ab′)₂ and IgG respectively. The surface was then allowed to stabilize. Single cycle kinetic data was obtained with the purified samples (Fab, F(ab′)₂ and IgG) at a flow rate of 40 μL/min to minimize any potential mass transfer effects. The signal from the reference channel Fc1 (no antigen capture) was subtracted from that of Fc2 to correct for differences in non-specific binding to the reference surface. The signal for human BTN3A1-His blank runs (no analyte) were subtracted to correct for differences in surface stability. The association phase for the five injections of increasing concentrations was monitored for 240 seconds each time and a single dissociation phase was measured for 1400 seconds following the last injection of analyte. Regeneration of the chip surface was conducted using two injections of 10 mM glycine-HCL pH 1.5 followed by a stabilization period of 240 seconds.
The source holds these as a separate data set.

The target is the same in assay [6]. Put plainly: BLI OctetRed96, F(ab′)2 loaded on FAB2G (anti-human CH1) sensors, human BTN3A1 as analyte 1.87-60 nM, 1:1 model, 30 C. The method, then: All runs (including loading, equilibration, association/dipping of sensors into analyte, dissociation and regeneration) were performed in black 96-well plates (Greiner) at 30° C. with shaking 1000 rpm using an OctetRed96 (ForteBio). […] The association of antibody or fragments with various concentrations of human BTN3A1 (60, 30, 15, 7.5, 3.75 and 1.87 nM) was monitored for 300 s, and the dissociation was followed for typically 500 s in kinetic buffer. Fitting of the data and constant measurements were performed with the Octet Red system software (version 7.1) using the 1:1 model. A control with an irrelevant antibody was used in order to assess the absence of non-specific binding of the target protein.

For assay [7] the target is unchanged. Put plainly: SPR Biacore T200, single cycle kinetics, BTN3A1-His captured on anti-His CM5 chip, F(ab′)2 as analyte, bivalent analyte model (kd 2), 25 C. The procedure:
as §3
This is another data set of the same source.

Assay [8] shares this target. The assay is described as follows: SPR Biacore T200, single cycle kinetics, BTN3A1-His captured on anti-His CM5 chip, F(ab′)2 as analyte, bivalent analyte model (kd 1), 25 C. The procedure:
as §3
This is another data set of the same source.

Read-outs that look alike come from different tables or passages of the source.

T1 sequence (O00481 30-254 limits assumed): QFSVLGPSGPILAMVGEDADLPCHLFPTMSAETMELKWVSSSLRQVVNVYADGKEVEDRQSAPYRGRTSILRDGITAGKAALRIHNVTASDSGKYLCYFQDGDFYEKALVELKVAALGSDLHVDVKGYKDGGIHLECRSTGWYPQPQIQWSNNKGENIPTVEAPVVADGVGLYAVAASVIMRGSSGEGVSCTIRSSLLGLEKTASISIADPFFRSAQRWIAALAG

B1: Chimeric 103.2 F(ab′)2 fragment (other)
VH: QVQMQQSGAEVVRPGTSVKVSCKASGYAFTSYLIHWIKQRPGQGLEWIGVINPRSGDSHYNEKFKDRTTLTADQSSSTAYMQLSSLTSDDSAVYFCARSDYGAYWGQGTLVTVSS
VL: DIVLTQSPVTLSVTPGDSVSLSCRASQSISNNLHWYRQKSHESPRLLIKYASQSIFGIPSRFSGSGSGTEFTLSINSVETEDFGIYFCQQSNSWPHTFGTGTKLELK
For the molecule B1, the off-rate (koff) – broadly, a measure of how fast the partners let go of each other – in assay [1] was 0.00112 s⁻¹. Also, the “kd 2” value in assay [2] came to 34.1 s⁻¹. In addition, the % CD107+ of Vγ9Vδ2 T cells, co-culture with Daudi cells, fragment at 10 µg/mL in assay [3] came out at 40.8%. Further, the on-rate (kon) (as a rule, the second-order rate constant of association) in assay [4] was 213000 M⁻¹ s⁻¹.

B2: Humanized 103.2 (hu103.2) F(ab′)2 fragment (other)
VH: QVQMQQSGAEVKKPGASVKVSCKASGYAFTSYLIHWIKQRPGQGLEWIGVINPRSGDSHYNEKFKDRVTMTADQSISTAYMELSRLRSDDTAVYYCARSDYGAYWGQGTLVTVSS
VL: EIVLTQSPATLSVSPGERATLSCRASQSISNNLHWYQQKPGQAPRLLIKYASQSAFGIPARFSGSGSGTEFTLTISSLQSEDFAVYFCQQSNSWPHTFGQGTKLEIK
For B2, the kon in assay [5] was 689000 M⁻¹ s⁻¹. Moreover, in assay [6], the Kd (in general, the constant that tells how readily two partners part at equilibrium) stood at 1230 pM; the dissociation rate constant (koff) amounted to 0.000243 s⁻¹; the on-rate constant (kon) is 198000 M⁻¹ s⁻¹. Besides, the “kd 2” value in assay [7] was determined as 35.9 s⁻¹. Moreover, the dissociation rate constant (koff) in assay [8] is 0.00162 s⁻¹. In assay [3], this molecule returned a % CD25+ of Vγ9Vδ2 T cells within PBMCs, 67 nM, 5 days of 43.2%; a % CTV dilution of Vγ9Vδ2 T cells within PBMCs, 67 nM, 5 days of 42%; an EC50 (nM) in Vγ9Vδ2 T cell degranulation assay (CD107) against Daudi of 0.0005 nM; an EC50 (nM) in Vγ9Vδ2 T cell degranulation assay (CD107) against SKOV-3 of 0.0005 nM.
